Results published in US20170218075A1 (HONG KONG UNIVERSITY OF SCIENCE AND TECHNOLOGY, published 2017).

Legend:
[1] = biological target: T1, GST-human EphA4 ligand binding domain (LBD) (human, UniProt P54764 29-209); assay: isothermal titration calorimetry, 20 µM LBD protein and 1 µM antibody
T1 construct: also called EphA4 LBD; EphA4 LBD recombinant protein; not shown: glutathione S-transferase (GST) tag
Protocol: FIG. 5. […] Isothermal titration calorimetry (ITC) experiments were carried out by incubating 20 μM Eph LBD protein in the cell with 1 μM antibodies.
To investigate the binding property of the IgG1s m101, m105, and m119 to EphA4, GST-human EphA4 ligand binding domain (LBD) was expressed and purified. The recognition of EphA4 LBD by the 3 IgG1s m101, m105, and m119 was determined by Western blot analysis. The EphA4 LBD protein was run on SDS-PAGE and they were immunoblotted with the 3 IgG1s (FIG. 4). The kinetics of the 3 IgG1s and EphA4 LBD interaction were further analyzed by conducting isothermal titration calorimetry (ITC) experiments. The heat generated by the interaction of EphA4 LBD recombinant protein with the IgG1s was measured with a sensitive calorimeter.

[2] = biological target: T2, extracellular domain of mouse EphA4 recombinant protein (mouse, UniProt Q03137 20-547); assay: competitive ELISA, mouse EphA4 ECD coated; competitor biotinylated mouse ephrin-A1 Fc
T2 construct: also called mouse EphA4 extracellular domain
Protocol: The interaction of EphA4 and ephrin-A that attenuated by the IgG1s was determined via the streptavidin-biotin detection method. IC50 of the 3 IgG1s were determined.
(§1) The EphA4 proteins were coated on a 96-well plate (Costar) at 50 ng/well in PBS overnight at 4° C. For phage ELISA, phages from each round of panning (polyclonal phage ELISA) or clones randomly picked from the infected TG 1 cells (monoclonal phage ELISA) were incubated with immobilized antigen. Bound phages were detected with anti-M13-HRP polyclonal Ab (Pharmacia, Piscataway, N.J.). For the soluble Fab binding assay, HRP-conjugated mouse anti-FLAG tag Ab (Sigma-Aldrich) was used to detect Fab binding. For the IgG1 binding assay, HRP-conjugated anti-Fab Ab (Sigma-Aldrich) was used for detection. For competitive ELISA assay, extracellular domain of mouse EphA4 recombinant protein or extracellular domain of mouse EphB2 recombinant protein was pre-coated on the ELISA plate and then incubated with different IgG1s for 1 hr at room temperature. After several washes with DPBS, the EphA4 or EphB2 proteins were then incubated with different biotinylated recombinant mouse ephrin-A/ephrin-B Fc chimera proteins for 1 hr at room temperature. The interaction of EphA4/EphB2 and ephrin-A/ephrin-B was determined via the streptavidin-biotin detection method.

[3] = biological target: T3, human EphA4 fused with IgG1 Fc and Avi-tag (EphA4-Fc) (human, UniProt P54764 20-547); assay: ELISA, EphA4 coated, IgG1 detected with anti-Fab-HRP; human EphA4; IgG1 format
T3 construct: also called human EphA4-Fc; not shown: human IgG1 Fc; Avi-tag
Protocol: (§2) FIG. 3. Binding of IgG1s m101, m105, and m119 to mouse and human EphA4 measured by ELISA. Serially diluted IgG1s were added to EphA4-coated wells. HRP-conjugated anti-Fab Ab was used for detection.
as §1

[4] = biological target: T3, human EphA4 fused with IgG1 Fc and …; assay: ELISA, EphA4 coated, Fab detected with anti-FLAG-HRP; human EphA4; Fab, not IgG1
Protocol: FIG. 2. Binding of IgG1s E1 (m101), E2, E5 (m105), and E19 (m119) to mouse and human EphA4 measured by ELISA. Serially diluted IgG1s were added to EphA4-coated wells. HRP-conjugated anti-FLAG Ab was used for detection.
as §1

[5] = biological target: T4, extracellular domain of mouse EphB2 recombinant protein (mouse, UniProt P54763 19-543); assay: competitive ELISA: mouse EphB2 extracellular domain coated, incubated with IgG1 m105, then biotinylated mouse ephrin-B2 Fc; streptavidin-biotin detection, % of inhibition
T4 construct: extracellular domain; also called EphB2 receptor
T4 sequence (looked up): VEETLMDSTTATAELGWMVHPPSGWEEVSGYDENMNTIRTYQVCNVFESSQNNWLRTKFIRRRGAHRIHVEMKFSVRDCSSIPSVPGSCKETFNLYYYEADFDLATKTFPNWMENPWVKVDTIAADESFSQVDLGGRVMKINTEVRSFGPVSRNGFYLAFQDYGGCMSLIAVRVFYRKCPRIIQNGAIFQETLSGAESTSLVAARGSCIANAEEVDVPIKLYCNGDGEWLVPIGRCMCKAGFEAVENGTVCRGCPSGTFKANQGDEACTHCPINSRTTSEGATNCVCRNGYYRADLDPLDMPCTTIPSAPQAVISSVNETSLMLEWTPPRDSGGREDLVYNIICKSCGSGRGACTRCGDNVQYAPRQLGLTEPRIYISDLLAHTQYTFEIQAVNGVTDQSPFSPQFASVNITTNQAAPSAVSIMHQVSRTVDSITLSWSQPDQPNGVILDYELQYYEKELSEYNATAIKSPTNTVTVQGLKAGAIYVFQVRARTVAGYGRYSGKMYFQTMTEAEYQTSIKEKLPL
Protocol: (§3) Extracellular domain of mouse EphA4 recombinant protein or extracellular domain of mouse EphB2 recombinant protein was first incubated with IgG1 m105, followed by incubating with different biotinylated recombinant mouse ephrin-A/ephrin-B Fc chimeric proteins. The effect of IgG1 m105 on the interaction of EphA4/EphB2 and ephrin-A/ephrin-B was then determined via the streptavidin-biotin detection method.
as §1, with “After several washes with DPBS, the EphA4 or EphB2 proteins were then incubated with different biotinylated recombinant mouse ephrin-A/ephrin-B Fc chimera proteins for 1 hr at room temperature.” left out

[6] = biological target: T3, human EphA4 fused with IgG1 Fc and …; assay: ELISA, EphA4 coated, IgG1 detected with anti-Fab-HRP
Protocol: as §2, §1

[7] = biological target: T2, extracellular domain of mouse EphA4 …; assay: competitive ELISA, mouse EphA4 ECD coated; competitor biotinylated ephrin-B2 Fc; ligand Ephrin-B2
Protocol: as §3
as §1, with “After several washes with DPBS, the EphA4 or EphB2 proteins were then incubated with different biotinylated recombinant mouse ephrin-A/ephrin-B Fc chimera proteins for 1 hr at room temperature.” left out

[8] = biological target: T2, extracellular domain of mouse EphA4 …; assay: competitive ELISA, mouse EphA4 ECD coated; competitor biotinylated mouse ephrin-A5 Fc; ligand mEphrin-A5
Protocol: as §3
as §1, with “After several washes with DPBS, the EphA4 or EphB2 proteins were then incubated with different biotinylated recombinant mouse ephrin-A/ephrin-B Fc chimera proteins for 1 hr at room temperature.” left out

[9] = biological target: T2, extracellular domain of mouse EphA4 …; assay: competitive ELISA: mouse EphA4 extracellular domain coated, incubated with IgG1 m105, then biotinylated mouse ephrin-B2 Fc; streptavidin-biotin detection, % of inhibition
Protocol: as §3
as §1, with “After several washes with DPBS, the EphA4 or EphB2 proteins were then incubated with different biotinylated recombinant mouse ephrin-A/ephrin-B Fc chimera proteins for 1 hr at room temperature.” left out

[10] = biological target: T2, extracellular domain of mouse EphA4 …; assay: competitive ELISA, mouse EphA4 ECD coated; competitor biotinylated mouse ephrin-A1 Fc; ligand mEphrin-A1
Protocol: as §3
as §1, with “After several washes with DPBS, the EphA4 or EphB2 proteins were then incubated with different biotinylated recombinant mouse ephrin-A/ephrin-B Fc chimera proteins for 1 hr at room temperature.” left out

[11] = biological target: EphA4 in cultured hippocampal neurons (rat, UniProt D3ZZK3 20-986); assay: cell-based or functional assay

T3 sequence (P54764 20-547 limits assumed): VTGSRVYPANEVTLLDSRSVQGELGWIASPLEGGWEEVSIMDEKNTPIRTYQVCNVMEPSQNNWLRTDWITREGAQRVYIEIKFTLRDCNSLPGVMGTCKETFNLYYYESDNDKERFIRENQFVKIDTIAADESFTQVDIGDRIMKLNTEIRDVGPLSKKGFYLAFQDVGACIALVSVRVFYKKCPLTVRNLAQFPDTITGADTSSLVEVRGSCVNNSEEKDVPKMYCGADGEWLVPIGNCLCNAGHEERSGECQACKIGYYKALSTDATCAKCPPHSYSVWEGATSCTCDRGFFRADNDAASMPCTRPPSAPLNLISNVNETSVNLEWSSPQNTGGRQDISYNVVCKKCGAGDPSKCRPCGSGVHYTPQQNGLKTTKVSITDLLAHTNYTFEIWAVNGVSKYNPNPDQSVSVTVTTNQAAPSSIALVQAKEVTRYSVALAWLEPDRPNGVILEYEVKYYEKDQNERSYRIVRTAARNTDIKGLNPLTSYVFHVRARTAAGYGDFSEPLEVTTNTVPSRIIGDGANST
T2 sequence (Q03137 20-547 limits assumed): as the sequence (P54764 20-547 limits assumed) above, with P59A, N121S, V124G, R250Q, S251N, T270S, K378R, N406S counted along it
T1 sequence (P54764 29-209): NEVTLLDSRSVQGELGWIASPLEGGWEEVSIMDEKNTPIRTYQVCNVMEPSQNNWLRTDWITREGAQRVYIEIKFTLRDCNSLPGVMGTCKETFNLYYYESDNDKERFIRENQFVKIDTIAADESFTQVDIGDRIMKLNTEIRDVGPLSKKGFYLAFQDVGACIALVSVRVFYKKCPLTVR

B1: IgG1 m101 (antibody, V domains shown)
VH: QVQLQQSGAEVKKPGSSVKVSCKASGYTFTGYYMHWVRQAPGQGLEWMGGIIPIFGTANYAQKFQGRVTITADKSTSTAYMELSSLRSEDTAVYYCATAPMVCSSTSCYLRGFDYWGQGTLVTVSS
VL: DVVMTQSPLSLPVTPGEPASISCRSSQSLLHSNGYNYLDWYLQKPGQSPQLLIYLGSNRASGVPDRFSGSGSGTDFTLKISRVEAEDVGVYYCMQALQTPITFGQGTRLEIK
notes: Fully human IgG1 made from Fab E1 by re-cloning into the pDR12 vector; also called E1; IgG1 E1
Kd [1]: ~83 nM | IC50 [2]: 0.71 nM | EC50 [3]: 1 nM

B2: Fab E1 (m101) (Fab, V domains shown)
VH: QVQLQQSGAEVKKPGSSVKVSCKASGYTFTGYYMHWVRQAPGQGLEWMGGIIPIFGTANYAQKFQGRVTITADKSTSTAYMELSSLRSEDTAVYYCATAPMVCSSTSCYLRGFDYWGQGTLVTVSS
VL: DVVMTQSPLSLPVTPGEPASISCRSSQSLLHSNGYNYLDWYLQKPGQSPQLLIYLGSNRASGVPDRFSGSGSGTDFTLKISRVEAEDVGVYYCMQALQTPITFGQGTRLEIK
notes: Soluble Fab from the phage library, detected with anti-FLAG antibody (FLAG tag); also called clone E1; Fab m101
EC50 [4]: 5 nM

B3: IgG1 m105 (antibody, V domains shown)
VH: EVQLVQSGAEVKKPGSSVKVSCKASGGTFSSYAISWVRQAPGQGLEWMGGIIPIFGTANYAQKFQGRVTMTRDTSISTAYMELSRLRSDDTAVYYCARELLYCSSTSCGTHGFDIWGQGTMVTVSS
VL: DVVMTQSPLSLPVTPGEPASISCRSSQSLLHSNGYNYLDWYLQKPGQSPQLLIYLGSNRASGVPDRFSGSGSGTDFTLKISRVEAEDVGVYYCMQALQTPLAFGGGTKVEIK
notes: Fully human IgG1 made from Fab E5 (pDR12 vector); also called E5; 105L
Kd [1]: ~8.6 nM | binding result [5]: no binding (tested: 1000 nM (Log [nM] = 3)) | EC50 [6]: < 1 nM | IC50 [7]: 1.81 nM | IC50 [8]: 22.7 nM | IC50 [9]: 0.78 nM | IC50 [10]: 0.34 nM | IC50 [2]: 0.35 nM | IC50 of inhibition of ephrin-A1 mediated EphA4 clusters [11]: 4.16 µg/mL

B4: Fab E5 (m105) (Fab, V domains shown)
VH: EVQLVQSGAEVKKPGSSVKVSCKASGGTFSSYAISWVRQAPGQGLEWMGGIIPIFGTANYAQKFQGRVTMTRDTSISTAYMELSRLRSDDTAVYYCARELLYCSSTSCGTHGFDIWGQGTMVTVSS
VL: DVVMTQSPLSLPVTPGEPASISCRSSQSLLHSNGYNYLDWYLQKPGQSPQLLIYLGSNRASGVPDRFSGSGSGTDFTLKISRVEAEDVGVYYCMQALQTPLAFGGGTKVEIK
notes: Soluble Fab, detected with anti-FLAG antibody; also called clone E5; Fab m105
EC50 [4]: 2 nM
